In patent US20220064329A1:

Target: recombinant human activated Factor VII (FVIIa) (human) (UniProt P08709)
Experiment: cell-based or functional assay

Sequence of recombinant human activated Factor VII (FVIIa) (human) (P08709 61-212, chain 1 of 2): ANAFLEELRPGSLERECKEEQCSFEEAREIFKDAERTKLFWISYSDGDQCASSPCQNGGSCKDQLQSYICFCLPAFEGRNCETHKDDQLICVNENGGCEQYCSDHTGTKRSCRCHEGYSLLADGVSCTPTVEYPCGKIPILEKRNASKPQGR
Sequence of recombinant human activated Factor VII (FVIIa) (human) (P08709 213-466, chain 2 of 2): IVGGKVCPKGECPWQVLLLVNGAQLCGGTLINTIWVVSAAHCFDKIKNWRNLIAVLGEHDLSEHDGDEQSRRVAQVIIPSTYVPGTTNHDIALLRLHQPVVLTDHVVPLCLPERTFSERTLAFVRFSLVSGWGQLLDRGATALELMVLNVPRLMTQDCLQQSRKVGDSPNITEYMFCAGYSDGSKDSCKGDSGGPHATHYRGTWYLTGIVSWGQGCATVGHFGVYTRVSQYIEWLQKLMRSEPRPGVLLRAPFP

| Substance | apparent second order rate constant (kinh) of inhibition of free FVIIa by antithrombin [M⁻¹ s⁻¹] | apparent second order rate constant of inhibition of FVIIa by alpha-2-macroglobulin, no antibody [M⁻¹ s⁻¹] |
| --- | --- | --- |
| human plasma-derived antithrombin (AT) (from UniProt P01008 33-464) | 124 |  |
| human plasma-derived alpha-2-macroglobulin (from UniProt P01023 24-1474) |  | 475 |
